± gives the uncertainty stated by the source.
Assay: protein stability index of a GFP-peptide fusion (yeast GPS) (PSI 1-4); higher = more stable; sorted into four equal gates, so the index is relative within each strain
Method in brief: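 Plasmids in a pooled yeast library fused tiled 17-residue yeast protein peptides downstream of GFP and also expressed Cherry. Mid-log cultures grown without leucine were sorted into four equal gates by GFP/Cherry fluorescence ratio. Each gate's plasmids were PCR-amplified and Illumina-sequenced, and reads were matched to strains by barcodes. The protein stability index is derived by multiplying each gate's read frequency by its gate number and summing the results.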

Sequence | protein stability index (doa10∆) | protein stability index (pdr5∆) | protein stability index (san1∆) | protein stability index (ubr1∆)
SVVRVLVHTQIRKTPLA [RPL3] | 1.19 ± 0.076 | 1.35 ± 0.096 | 1.11 ± 0.14 | 1.54 ± 0.046
NTTVISDKQRRLLAKDA [DIS3] | 2.37 ± 0.051 | 2.23 ± 0.045 | 2.06 ± 0.066 | 2.18 ± 0.045
GSFKYITARSAFVEFGA [SWP82] | 2.62 ± 0.11 | 3.11 ± 0.074 | 2.96 ± 0.069 | 2.56 ± 0.056
LCRNPLTSGLLYSYLIK [YJL039C/NUP192] | 2.07 ± 0.064 | 1.84 ± 0.06 | 1.67 ± 0.088 | 1.53 ± 0.036
FLNHAFDYMNRYWVQKE [CDC53] | 2.1 ± 0.056 | 2.48 ± 0.056 | 1.89 ± 0.067 | 1.94 ± 0.046
GAHGNSDPVCLFVCNKD [POP3] | 3 ± 0.098 | 3.37 ± 0.12 | 3.07 ± 0.084 | 2.8 ± 0.059
CFPQYVNSKQGAINVAN [NNF1] | 2.43 ± 0.29 | – | – | 3.02 ± 0.16
EEKEEEAAEESDDDMGF [RPP1B] | 3.19 ± 0.06 | 3.23 ± 0.065 | 3.09 ± 0.048 | 3.31 ± 0.036
PSRRERRREQTTYSVDD [ISW2] | 2.65 ± 0.26 | 3 ± 0.062 | 3.22 ± 0.17 | 2.35 ± 0.14
DKYHPGYFGKVGMRYFH [RPL28] | 3.23 ± 0.062 | 2.99 ± 0.072 | 2.99 ± 0.083 | 2.96 ± 0.044
PHNSKSLGFLQQSNKLH [RPN3] | 3.11 ± 0.059 | 3.07 ± 0.072 | 3.1 ± 0.053 | 3.26 ± 0.055
RNAEFKVSKNSTSFKNP [YMR153W/NUP53] | 2.79 ± 0.093 | 2.13 ± 0.062 | 2.14 ± 0.1 | 2.46 ± 0.076
LSTDATSADLKSKAEEL [UBP6] | 3.17 ± 0.24 | 2.64 ± 0.13 | 2.95 ± 0.19 | 3.11 ± 0.21
TPSFSFGKTTANLPANS [YLR335W/NUP2] | 2.84 ± 0.069 | 2.96 ± 0.1 | 3.01 ± 0.13 | 3.19 ± 0.054
SPRFNVKIGDIEKWTAN [RPS22A] | 3.06 ± 0.082 | 3.23 ± 0.075 | 2.85 ± 0.065 | 3.34 ± 0.073
CWAVRADVHFLDCDGGF [RRP45] | 2.31 ± 0.2 | 2.65 ± 0.14 | 2.9 ± 0.085 | 2.72 ± 0.064
NSSNYAELFNNDIKLFV [PRP8] | 2.44 ± 0.041 | 2.48 ± 0.036 | 2.26 ± 0.048 | 2.27 ± 0.029
LSGSISERIVDCIIRLP [FAS1] | 1.35 ± 0.092 | 1.16 ± 0.09 | 1.23 ± 0.27 | 1.85 ± 0.046
EEIFFKSVRILKNKAEY [RPC40] | 3.2 ± 0.074 | 3.2 ± 0.085 | 3.06 ± 0.062 | 3.16 ± 0.047
IISTAIADSTHVKRITK [ECM29] | 2.94 ± 0.1 | 2.95 ± 0.092 | 2.6 ± 0.1 | 3.13 ± 0.078

Sequence | protein stability index (doa10∆) | protein stability index (pdr5∆) | protein stability index (san1∆) | protein stability index (ubr1∆)
MQGKITKVLNMKPSEIL [SMC2] | 2.48 ± 0.25 | 2.88 ± 0.18 | – | –
EVYNVIASDGSYVNYRH [RPO21] | 3.41 ± 0.11 | 3.58 ± 0.085 | 2.88 ± 0.12 | 3.08 ± 0.091
FIRYDVKTPKKTKYILQ [CSN12] | 2.34 ± 0.048 | 2.29 ± 0.048 | 1.78 ± 0.057 | 2.35 ± 0.051
QFNKILPEPTEGFAADD [FAS1] | 2.79 ± 0.067 | 3.07 ± 0.08 | 2.91 ± 0.081 | 2.77 ± 0.11
EIAQANSRNAIRKLVKN [RPL19A] | 2.9 ± 0.15 | 3.01 ± 0.083 | 2.86 ± 0.11 | 3.1 ± 0.098
LQLSKTPLSIKIMVAEW [SRB8] | 2.31 ± 0.17 | 2.84 ± 0.072 | 2.69 ± 0.13 | 3 ± 0.12
GANDLGFTASVSNQENA [MED1] | 3.06 ± 0.083 | 3.17 ± 0.11 | 2.93 ± 0.078 | 3.39 ± 0.11
LRADKLYEKLKQEIMMS [ISW2] | 1.63 ± 0.14 | 1.38 ± 0.18 | 1.78 ± 0.25 | 1.41 ± 0.15
YWTQYLGLFIHKISFSG [YJL039C/NUP192] | 1.99 ± 0.076 | 1.8 ± 0.058 | 1.59 ± 0.1 | 1.89 ± 0.05
VLRTALVHDGLARGLRE [RPS12] | 2.57 ± 0.17 | 2.79 ± 0.16 | 2.77 ± 0.096 | 3.25 ± 0.1
YALFLKALRRKIYINLA [SSN2] | 1.62 ± 0.092 | 1.31 ± 0.067 | 1.35 ± 0.12 | 1.47 ± 0.085
RNSKTVREFLEKNYDRK [PRE6] | 3.08 ± 0.27 | – | – | –
KKLSKKYNAFIASEVLI [RPL1A] | 1.45 ± 0.026 | 1.9 ± 0.025 | 1.8 ± 0.052 | 1.67 ± 0.023
PKDFSPNFTGIDKLMLS [SSN2] | 1.42 ± 0.17 | 1.38 ± 0.15 | 1.85 ± 0.27 | 1.26 ± 0.11
VHKLRHYLVNLTSPAFG [GRR1] | 1.24 ± 0.04 | 1.38 ± 0.035 | 1.34 ± 0.077 | 1.21 ± 0.031
KLEKLRNEKRMFLEFQS [SMC2] | 2.88 ± 0.13 | 3.3 ± 0.08 | 3.15 ± 0.12 | 3.49 ± 0.092
PEVSMIRDIREKELKIF [RPB2] | 3.13 ± 0.15 | 2.41 ± 0.084 | 3.38 ± 0.075 | 2.69 ± 0.13
LHYTPIEDLWQFLYEKH [RPC82] | 2.24 ± 0.13 | 2.28 ± 0.13 | 2.14 ± 0.12 | 2.4 ± 0.16
IRGSDQAIPKFQMNCYA [RPN2] | 1.27 ± 0.085 | 1.62 ± 0.066 | 1.55 ± 0.13 | 1.47 ± 0.11
